Tests used:
[1] = target: p53-like peptide W23A, displayed on E. coli; assay: flow cytometry on cells
[2] = target: p53-like peptide F19A, displayed on E. coli; assay: flow cytometry on cells

relative Kd (against the wild type p53-like peptide) [1]: > 10000
relative Kd (against the wild type p53-like peptide) [2]: > 10000
Substance: Mdm2-GST (from UniProt Q00987 1-491) (natural protein)

Source: publication PMC10773984
